Results published in patent publication US20210349104A1 (MESO SCALE TECHNOLOGIES, published 2021).

B1: HCoV-HKU1 S protein (other)
chain: AVIGDFNCTNFAINDLNTTVPRISEYVVDVSYGLGTYYILDRVYLNTTILFTGYFPKSGANFRDLSLKGTTYLSTLWYQKPFLSDFNNGIFSRVKNTKLYVNKTLYSEFSTIVIGSVFINNSYTIVVQPHNGVLEITACQYTMCEYPHTICKSKGSSRNESWHFDKSEPLCLFKKNFTYNVSTDWLYFHFYQERGTFYAYYADSGMPTTFLFSLYLGTLLSHYYVLPLTCNAISSNTDNETLQYWVTPLSKRQYLLKFDNRGVITNAVDCSSSFFSEIQCKTKSLLPNTGVYDLSGFTVKPVATVHRRIPDLPDCDIDKWLNNFNVPSPLNWERKIFSNCNFNLSTLLRLVHTDSFSCNNFDESKIYGSCFKSIVLDKFAIPNSRRSDLQLGSSGFLQSSNYKIDTTSSSCQLYYSLPAINVTINNYNPSSWNRRYGFNNFNLSSHSVVYSRYCFSVNNTFCPCAKPSFASSCKSHKPPSASCPIGTNYRSCESTTVLDHTDWCRCSCLPDPITAYDPRSCSQKKSLVGVGEHCAGFGVDEEKCGVLDGSYNVSCLCSTDAFLGWSYDTCVSNNRCNIFSNFILNGINSGTTCSNDLLQPNTEVFTDVCVDYDLYGITGQGIFKEVSAVYYNSWQNLLYDSNGNIIGFKDFVTNKTYNIFPCYAGRVSAAFHQNASSLALLYRNLKCSYVLNNISLTTQPYFDSYLGCVFNADNLTDYSVSSCALRMGSGFCVDYNSPSSSSSRRKRRSISASYRFVTFEPFNVSFVNDSIESVGGLYEIKIPTNFTIVGQEEFIQTNSPKVTIDCSLFVCSNYAACHDLLSEYGTFCDNINSILDEVNGLLDTTQLHVADTLMQGVTLSSNLNTNLHFDVDNINFKSLVGCLGPHCGSSSRSFFEDLLFDKVKLSDVGFVEAYNNCTGGSEIRDLLCVQSFNGIKVLPPILSESQISGYTTAATVAAMFPPWSAAAGIPFSLNVQYRINGLGVTMDVLNKNQKLIATAFNNALLSIQNGFSATNSALAKIQSVVNSNAQALNSLLQQLFNKFGAISSSLQEILSRLDALEAQVQIDRLINGRLTALNAYVSQQLSDISLVKFGAALAMEKVNECVKSQSPRINFCGNGNHILSLVQNAPYGLLFMHFSYKPISFKTVLVSPGLCISGDVGIAPKQGYFIKHNDHWMFTGSSYYYPEPISDKNVVFMNTCSVNFTKAPLVYLNHSVPKLSDFESELSHWFKNQTSIAPNLTLNLHTINATFLDLYYEMNLIQESIKSLN
notes: also called S protein from HCoV-HKU1
B2: MERS-CoV S protein (other)
chain: YVDVGPDSVKSACIEVDIQQTFFDKTWPRPIDVSKADGIIYPQGRTYSNITITYQGLFPYQGDHGDMYVYSAGHATGTTPQKLFVANYSQDVKQFANGFVVRIGAAANSTGTVIISPSTSATIRKIYPAFMLGSSVGNFSDGKMGRFFNHTLVLLPDGCGTLLRAFYCILEPRSGNHCPAGNSYTSFATYHTPATDCSDGNYNRNASLNSFKEYFNLRNCTFMYTYNITEDEILEWFGITQTAQGVHLFSSRYVDLYGGNMFQFATLPVYDTIKYYSIIPHSIRSIQSDRKAWAAFYVYKLQPLTFLLDFSVDGYIRRAIDCGFNDLSQLHCSYESFDVESGVYSVSSFEAKPSGSVVEQAEGVECDFSPLLSGTPPQVYNFKRLVFTNCNYNLTKLLSLFSVNDFTCSQISPAAIASNCYSSLILDYFSYPLSMKSDLSVSSAGPISQFNYKQSFSNPTCLILATVPHNLTTITKPLKYSYINKCSRFLSDDRTEVPQLVNANQYSPCVSIVPSTVWEDGDYYRKQLSPLEGGGWLVASGSTVAMTEQLQMGFGITVQYGTDTNSVCPKLEFANDTKIASQLGNCVEYSLYGVSGRGVFQNCTAVGVRQQRFVYDAYQNLVGYYSDDGNYYCLRACVSVPVSVIYDKETKTHATLFGSVACEHISSTMSQYSRSTRSMLKRRDSTYGPLQTPVGCVLGLVNSSLFVEDCKLPLGQSLCALPDTPSTLTPRSVRSVPGEMRLASIAFNHPIQVDQLNSSYFKLSIPTNFSFGVTQEYIQTTIQKVTVDCKQYVCNGFQKCEQLLREYGQFCSKINQALHGANLRQDDSVRNLFASVKSSQSSPIIPGFGGDFNLTLLEPVSISTGSRSARSAIEDLLFDKVTIADPGYMQGYDDCMQQGPASARDLICAQYVAGYKVLPPLMDVNMEAAYTSSLLGSIAGVGWTAGLSSFAAIPFAQSIFYRLNGVGITQQVLSENQKLIANKFNQALGAMQTGFTTTNEAFHKVQDAVNNNAQALSKLASELSNTFGAISASIGDIIQRLDVLEQDAQIDRLINGRLTTLNAFVAQQLVRSESAALSAQLAKDKVNECVKAQSKRSGFCGQGTHIVSFVVNAPNGLYFMHVGYYPSNHIEVVSAYGLCDAANPTNCIAPVNGYFIKTNNTRIVDEWSYTGSSFYAPEPITSLNTKYVAPQVTYQNISTNLPPPLLGNSTGIDFQDELDEFFKNVSTSIPNFGSLTQINTTLLDLTYEMLSLQQVVKALNESYIDLKELGNYTY
notes: also called S protein from MERS-CoV
B3: HCoV-OC43 S protein (other)
chain: AVIGDLKCTSDNINDKDTGPPPISTDTVDVTNGLGTYYVLDRVYLNTTLFLNGYYPTSGSTYRNMALKGSVLLSRLWFKPPFLSDFINGIFAKVKNTKVIKDRVMYSEFPAITIGSTFVNTSYSVVVQPRTINSTQDGDNKLQGLLEVSVCQYNMCEYPQTICHPNLGNHRKELWHLDTGVVSCLYKRNFTYDVNADYLYFHFYQEGGTFYAYFTDTGVVTKFLFNVYLGMALSHYYVMPLTCNSKLTLEYWVTPLTSRQYLLAFNQDGIIFNAEDCMSDFMSEIKCKTQSIAPPTGVYELNGYTVQPIADVYRRKPNLPNCNIEAWLNDKSVPSPLNWERKTFSNCNFNMSSLMSFIQADSFTCNNIDAAKIYGMCFSSITIDKFAIPNGRKVDLQLGNLGYLQSFNYRIDTTATSCQLYYNLPAANVSVSRFNPSTWNKRFGFIEDSVFKPRPAGVLTNHDVVYAQHCFKAPKNFCPCKLNGSCVGSGPGKNNGIGTCPAGTNYLTCDNLCTPDPITFTGTYKCPQTKSLVGIGEHCSGLAVKSDYCGGNSCTCRPQAFLGWSADSCLQGDKCNIFANFILHDVNSGLTCSTDLQKANTDIILGVCVNYDLYGILGQGIFVEVNATYYNSWQNLLYDSNGNLYGFRDYIINRTFMIRSCYSGRVSAAFHANSSEPALLFRNIKCNYVFNNSLTRQLQPINYFDSYLGCVVNAYNSTAISVQTCDLTVGSGYCVDYSKNRRSRGAITTGYRFTNFEPFTVNSVNDSLEPVGGLYEIQIPSEFTIGNMVEFIQTSSPKVTIDCAAFVCGDYAACKSQLVEYGSFCDNINAILTEVNELLDTTQLQVANSLMNGVTLSTKLKDGVNFNVDDINFSPVLGCLGSECSKASSRSAIEDLLFDKVKLSDVGFVEAYNNCTGGAEIRDLICVQSYKGIKVLPPLLSENQISGYTLAATSASLFPPWTAAAGVPFYLNVQYRINGLGVTMDVLSQNQKLIANAFNNALYAIQEGFDATNSALVKIQAVVNANAEALNNLLQQLSNRFGAISASLQEILSRLDALEAEAQIDRLINGRLTALNAYVSQQLSDSTLVKFSAAQAMEKVNECVKSQSSRINFCGNGNHIISLVQNAPYGLYFIHFSYVPTKYVTARVSPGLCIAGDRGIAPKSGYFVNVNNTWMYTGSGYYYPEPITENNVVVMSTCAVNYTKAPYVMLNTSIPNLPDFKEELDQWFKNQTSVAPDLSLDYINVTFLDLQVEMNRLQEAIKVLNQSYINLKDIGTYEY
notes: also called S protein from HCoV-OC43

The binders below were run against T1, ACE2 (angiotensin-converting enzyme 2), labeled (human, UniProt Q9BYF1 18-740) (assay: labeled ACE2 on immobilized Mixed Panel, ECL).
T1 construct: also called labeled ACE2
T1 sequence (Q9BYF1 18-740 limits assumed): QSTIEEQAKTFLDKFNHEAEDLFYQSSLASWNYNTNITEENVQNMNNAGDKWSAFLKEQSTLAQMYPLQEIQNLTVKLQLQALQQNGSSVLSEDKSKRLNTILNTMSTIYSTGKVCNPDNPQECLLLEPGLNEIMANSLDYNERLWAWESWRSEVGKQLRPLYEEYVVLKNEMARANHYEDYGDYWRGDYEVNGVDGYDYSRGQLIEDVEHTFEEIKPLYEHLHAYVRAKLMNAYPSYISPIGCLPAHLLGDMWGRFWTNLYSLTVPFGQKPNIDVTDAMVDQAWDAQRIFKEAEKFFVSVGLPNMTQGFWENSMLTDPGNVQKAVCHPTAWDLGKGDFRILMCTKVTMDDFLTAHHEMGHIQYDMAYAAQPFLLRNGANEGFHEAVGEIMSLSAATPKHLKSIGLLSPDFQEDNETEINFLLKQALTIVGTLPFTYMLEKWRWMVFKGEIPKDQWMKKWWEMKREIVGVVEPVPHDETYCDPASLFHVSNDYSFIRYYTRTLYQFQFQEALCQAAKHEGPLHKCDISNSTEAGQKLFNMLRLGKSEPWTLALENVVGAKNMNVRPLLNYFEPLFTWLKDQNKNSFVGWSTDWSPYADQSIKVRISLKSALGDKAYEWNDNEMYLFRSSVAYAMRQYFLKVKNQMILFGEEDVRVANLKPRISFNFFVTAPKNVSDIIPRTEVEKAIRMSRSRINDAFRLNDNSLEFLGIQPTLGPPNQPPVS
B1: no binding. B2: no binding. B3: no binding.
